Here are results for 41 sequences from the nanobody polyreactivity screen of Harvey et al. (2022).

This series can be described thus: yeast display, Sf9 membrane polyspecificity reagent, FACS + sequencing; frameworks hold sequencing errors. In short, it runs like this: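 A synthetic nanobody library was expressed on Saccharomyces cerevisiae BJ5465 by galactose induction for 36–48 hours. The library was stained for 1 hour at 4 °C with 10% biotinylated, detergent-solubilized Sf9 membrane reagent and enriched with streptavidin microbeads before FACS. Low and high (top ~1%) gates were set on anti-HA fluorescence for expression and streptavidin fluorescence for reagent binding, and each polyreactivity label reflects the gate of origin.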
As to “QFQLVESGGGLVQAGGSLRLSCAASGRTFKVYAMGCYRQAPGKERELVAAITGGGSTNYADSVKGRFTISRDNAKNTVYLQMNSLKAEDTAVYYCNARYYYRLVKWSRFSSYDFWGQGTQVTVSS”, the “polyreactivity (PSR sort gate)” value is given as “low polyreactivity”.
The same measure for “QFQLVESGGGLVQAGGSLRLSCAASGRTFYLYAMGWYRQAPGKERELVASISWNGGSTYYADSVKGLFTISRDNAKNYVYLQMNSLKPEDTAVYYCATDSHRSRLNRPYQLFPAYYYWGQGTQVTVSS”: “low polyreactivity”; for “QFQLVESGGGLVQAGGSLRLSCAASGSFSGTNAMGWYRQAPGKERELVAGISYGGGSTYYADSVKGRFTISRDNAKNTVYLQMNSLKPEDTAVYYCAKYYAPYRFYYCGQGTQVTVSS”: “high polyreactivity”.
For “QFQLVESGGGLVQAGGSLRLSCAASGSICVLYPMGWYRQAPGKERELVAAITSGASTNYADSVKGRFTISRDNAKNTVYLQMNSQKPEDTAVYYCNTGSRLDRVDSWGQGTQLTVSS”, the “polyreactivity (PSR sort gate)” value is listed as “low polyreactivity”.
With “QFQLVESGGGLVQAGGSLRLSCAASGSIFEPNAMGWYRQAPGKEREFVAAISGSGGSTYYADSVKGRFTISRDNAKNTVYLQMNSLIQEDTAVYYCATRGKRSYFRTFYYWGQGTQVTVSS”, the “polyreactivity (PSR sort gate)” value is recorded as “high polyreactivity”.
Consider “QFQLVESGGGLVQAGGSLRLSCAASGSIFGPYAMGWYRQAPGKEREFVAAISRSGTRTNFADSVKGSFTISRDSAKNTVYLQMNSLKPEDTAVYYCATAAFIVGTSRTYDYWGQGTQVTVSS”, for which the “polyreactivity (PSR sort gate)” value is given as “high polyreactivity”.
As to “QFQLVESGGGLVQAGGSLRLSCAASGSIFGYYAMGWYRQAPGKESELVAAISASGGTTYYADSVKGRFTISRDYAKNTVYLQMNSLKPEDTAVYYCNKLYLKPGRYYYWGQGTQVTVSS”, the “polyreactivity (PSR sort gate)” value is “high polyreactivity”.
For “QFQLVESGGGLVQAGGSLRLSCAASGSIFPPYVMGCYRQAPGKERELVATIDSGGSTYYADSVKGRFTISRDNAKNPVYLQINSLKPEDTAVYYCAARQVSVSVHQYGYWGQGTQVTVST”, the “polyreactivity (PSR sort gate)” value is listed as “low polyreactivity”.
The same measure for “QFQLVESGGGLVQAGGSLRLSCAASGSIIPIYAMGWYRQAPGKERELVAAINRSGGSTYYADSVKGRFTISRDNAKNTVYLQMNSLKPEDTAVYYCNADYGYHNQLFWGYYGWSSDHWGQGTQVTVSS”: “low polyreactivity”; for “QFQLVESGGGLVQAGGSLRLSCAASGSTFDINDMGWYRQAPGKERELVAAITTSGASTYYADSVKGRFTISRDNAKNTVYLQMNSLKPEETAVSYCAADCLSYVWYVWYDYWGQGTKVTVSS”: “low polyreactivity”.
In the case of “QFQLVESGGGLVQAGGSLRLSCAASGSTFEKNAMGWYRQAPGKERDLVDAISNGVSTYYADSVKGRFTISRDNAKNSVFLQMISLKPEDTAVYFCAADLFFGAETVYYDKFDYWGQGTKVTVSS” it was “low polyreactivity”.
In the case of “QFQLVESGGGLVQAGGSLRLSCAASGSTFGGNAMGWYRQAPGKERELVAAIDSGGGTNYADSVKGRFTISRDNAKNTVYLQMNSLKPEDSAVYYCNADWAVRSTQNSSSGHDYWGQGTQVTVSS” it was “low polyreactivity”; in that of “QFQLVESGGGLVQAGGSLRLSCAASGSTFGYYAMGWYSQAPGKERELVAAITSTGRTKYADSVKGRFTISRDNAKNSVYLQMNSLKPEDTAVYYCAADIWGQGTQVTVSS”, “high polyreactivity”; in that of “QFQLVESGGGLVQAGGSLRLSCAASGSTFPHYTMGWYRQAPGKERELVAAIRRSAGSTYYADSVKGRFTISRDNAKNTVYLQMNSLKPEDTAVYYCNTRQRPPYLVKLNYWGQGTQVTVSS”, “high polyreactivity”.
On to “QFQLVESGGGLVQAGGSLRLSCAASGSTFRGYVMGWYRQAPGKERELVAAITFSSGSTYYADSVKGRFTISRDNAKNTVYLQMNSLKPEDTAVYYCAAVGPYYRDYYYWGQGTQVTVSS”, for which the “polyreactivity (PSR sort gate)” value is recorded as “high polyreactivity”.
In the case of “QFQLVESGGGLVQAGGSLRLSCAASGSTFWVYAMGWYRQAPGKERDLVAAITFRTTSTYYADSVKGRFTISRDTAKNSVSLQLKSLIPDDNAVYFCAATEYYATEYDYWGQCTQVTVSS” it was “low polyreactivity”; in that of “QFQLVESGGGLVQAGGSLRLSCAASGSTFYPNSMGWYRQAPGKEMELVAAISSGGSTSYADSVKGRFTISRDNAKNTVYLQMNSLKPEDTAVYYCNASSPGAVPVYDYDYWGQGTQVTVSS”, “low polyreactivity”; in that of “QFQLVESGGGLVQAGGSLRLSCAASGYIFGRYAMGWYRQPPGKERELVAAISSTGDSTYYADSVKGRFTISRDYAKNTVYLQMNSQKPEDTAVYYCNAVVPRYSYGRYYYWGQGTQVTVSS”, “high polyreactivity”.
With “QFQLVESGGGLVQAGGSLRLSCAATGRTFYIYSMGWYRQAPGKERELVAAITSGGSTSYADSVKGRFTISRDNAKNTVYLQMNSLKPEDTAVYYCAADQYTYWFGYDYWGQGTQVTVSS”, the “polyreactivity (PSR sort gate)” value is given as “low polyreactivity”.
In the case of “QFQLVESGGGLVQAGGSLRLSCAAYGFTFYAYTMGWYRQAPGKERELVAAIRTGSSTYYADSVKGRFTISRDNAKNTVYLQMNSMKPQDTAVYYCAAPRWRRPYRYDYWGQGTQVTVSS”, the “polyreactivity (PSR sort gate)” value is “high polyreactivity”.
Consider “QFQLVESGGGLVQAGGSLRLSSAASGSTFYYNAMGWYRQAPGKERELVAVITSGVSTYYADSVKGRFTISRDNAKNTVYLQMNSLKPVDTAVYYCAADLYRPYEYQLDYWGHGTQVTVSS”, for which the “polyreactivity (PSR sort gate)” value is “low polyreactivity”.
In the case of “QFQLVESGGGLVQAGGSLRLSSAPSGIIFPYYAMGWYRQAPGKERELVAAISRTGSTYYADSVKGRFTISRDNAKNTVYLQMNRLNPEVTAVYYCAARTYYSQGTSSVSLQQYGYWGEGTQVTVSS” it was “low polyreactivity”; in that of “QFQLVESGGGLVQAGGSLRVSSAASGITLPYYAMGWYRQAPGKDRELVAGISSRGGSTYYADSVKGRFTISRDNAKNTVYLQMNSLKPEDTAVYYCAAKVASTRLGPAYGYWGQGTQVTVSS”, “high polyreactivity”.
The same measure for “QFQLVESGGGLVQARGSLRLSCAASGRIFSWYAMGWYRQAPGKETELVAGLNRNGGSTYYPDSVKGRFTISRDNAKNTVYLQMNSQKPEDTAVYYCAKGQYYYTGDYDYWGQGTQVTVSS”: “high polyreactivity”; for “QFQLVESGGGLVQARGSLRLSCAASGSTFSQYAMGWYRQAPGKERELVAAITTSDGTTNYADSVKGRFTISRDNAKNTVFLQMNILQPEDTAVYYCNNEYFYYSFGYWGQGTQVTVSS”: “low polyreactivity”; for “QFQLVESGGGVVQAGGSLRLSCAASGYTFYIYARGWYRQAPWKERELVAAISWTDGSTYYADSVKGRFTISRDNAKNTVYLQMNSLKPEDTAVYYCAKTSLYAGAKEYDYWGQGTQVTVSS”: “low polyreactivity”.
In the case of “QFQLVESGGRLVQAGGSLRLSCAASGFTFNRYAMGSYRQAPGKGREFVAAITRRGGSTYYADSVKGRFTISRDNAKNTVYLQMNSLKPEDTAVYYCNVKPSARGSPLYDYWGQGTQVTVSS” it was “high polyreactivity”; in that of “QFQLVESGRGLVQAGGSLRLSCASSGSTQKYAMGWYRQAPRKERELVAAIRRTGGSTYYADSVKGRFKISRDNAKNTVYLQMNSLKPEDTAVYYCAAYIWVAESYDWGQGTQVTVSS”, “low polyreactivity”; in that of “QFQLVESRGGLDQAVGSLRLSCAASGFIFAGYVMGLYRQAPGQERELVAGISNSGDNTHYADSVKGRFTISRDNAKNTDYLQMNSLKPEDTAVYYCAAVEQHLAGDDFYSYYYWGQGTQVTLSS”, “low polyreactivity”.
For the sequence “QFQLVETGGGLVQAGGSLRLSCAASGITFVRYAMGWYSQAPGKERELVAGISRGGSTNYADSVKGRFTISRDNAKNTVYLQMNSLKPEDTAVYYCNRANSFFDTHTLQFYYWGQGTQVTVSS”, the “polyreactivity (PSR sort gate)” value was “high polyreactivity”.
For “QGHLVESGGGLVQAGGSRRLSCAASGRIFSPYALGWSRQGPGKERELVAAISSDDGITYYADSVKRRFTISRDNAKNTVYFQMNSLKPEDTAVYYCAADSGTRPAGDYWGQGTQVTVSS”, the “polyreactivity (PSR sort gate)” value was “low polyreactivity”.
In the case of “QGQHAESGGGLVQAGGSLRLTCAASGFTFVYYPMGWYRQATGKERELVAAISGRGGSTYYADSVKGRFTISRDNAKNTVFLQMNSMKPEDTAVYYCAADAYESGNWEANGYWGQGTQVSVSS” it was “low polyreactivity”; in that of “QGQHVESGGGLVQAGGSLPLSCAASGFIFNLYAMGWSRQAPGKERELVAAISSGGGTSYADSVKGRFTISRDNAKNTVYLQMNTLKPEDTADYYCAARAWYRVSAYDYWGQGTQVTVSS”, “high polyreactivity”; in that of “QGQHVESGGGLVQAGGSLRLSCAASGNILASNGMGWYRQAPGKERELVAAITFSGDTTYYADSVKGRFTISRDNAKNTVYLQMNSLKPEDTAVYYCNDGSFIVNGGYDGDYWGQGTQVTLSS”, “low polyreactivity”.
For “QGQLEESGGGLVQAGGSLRLSCAASGFTFYDNAMGWYRQAPGKERELVAAISWSGGSTYADSVKGRFTISRDNAKNTVYLLMNSLKPEDTAVYYCNADAWLASGYRYDYWGQGTQVTVSA”, the “polyreactivity (PSR sort gate)” value is recorded as “low polyreactivity”.
In the case of “QGQLGESGGGLVQAGGSLRLSCAATGFTSYVYAMGWYRQAPGKERELVAAISLRTASTYYADSVKGRFTISRDNAKNTVYLQMTSLKPEDTAVYDCALGRETYRYAYRLNYWGQGTQVTLSS” it was “high polyreactivity”; in that of “QGQLVESCGCLVQAGGSLRLSCAASGSTFVVYDMGWYRQAPGKERELVAAITWSGGSTYYADSVKGRFTISRDNAKNTVYLQMNSLKPEDTAVYYCNKVTWHQGHDYWGQGTQVTVSS”, “low polyreactivity”.
Turning to “QGQLVESGGCLVQAGGSLRLSCAASGSIFSENTMGWYRQAPGKKRELVADITSGGSTNYADSVKGRFTSSRDNAKYTVYLQMNSLIPEDTEVYYCAADYNGEYDYWGQGTLVTVSS”, the “polyreactivity (PSR sort gate)” value is given as “low polyreactivity”.
Regarding “QGQLVESGGGFVQEGGSLRLSCAASRSIFRLYAMGWYRQAPGKEREFVARLRWRGGSTNYADSVKGRFTISRDNAKKTVYLQMNSLKPEDTAVYYCNARGRSGGGRYDYWGQGTQVTVSS”, the “polyreactivity (PSR sort gate)” value was “high polyreactivity”.
Regarding “QGQLVESGGGLDQAGGSLRLSCAASGSIFHGNAMGWYRQAPGKERELVAVISDGGYTDYADSVKGRFTISRDNAKNTVYLQMNSLKPEDTAGYYCNADYDTQYFYRNPIYYLSGYDYRGQGTQVTVSS”, the “polyreactivity (PSR sort gate)” value is recorded as “low polyreactivity”.
The same measure for “QGQLVESGGGLFQAGASLRLSCAASGITFYDNAMGLYRQAPGKERELVAGISYDGDSTYADSVKGRFTISRDNAKNTVYLQMNSLKPEDTAVYYCAALCPYDWLWAGDYWGQGTQVTVSS”: “low polyreactivity”.
